The results in this text go back to patent US20240092931A1 (JANUX THERAPEUTICS, published 2024).

Test [1] concerns the target T1, Human TROP2-Biotin (human, UniProt P09758 27-274, biotinylated (site not stated)).
T1 construct: The text calls the captured antigens 'biotinylated peptides'
T1 sequence (looked up): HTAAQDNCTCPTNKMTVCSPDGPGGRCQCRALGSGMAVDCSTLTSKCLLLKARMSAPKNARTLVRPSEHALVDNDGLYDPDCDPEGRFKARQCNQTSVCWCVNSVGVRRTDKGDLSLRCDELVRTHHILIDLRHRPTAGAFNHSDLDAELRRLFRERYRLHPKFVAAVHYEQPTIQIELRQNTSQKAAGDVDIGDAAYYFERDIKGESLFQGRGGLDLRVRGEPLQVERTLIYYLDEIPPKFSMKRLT
Kind of test: BLI (Octet): 10 nM Human TROP2-Biotin loaded on sensor, Ab at 6.25-50 nM, pH 7.4.

For test [2], the target named is T1, Human TROP2-Biotin. Kind of test: TROP2 ELISA; TROP2-biotin captured on neutravidin-coated plate, antibody titrated, detected with a secondary antibody, OD 450 nm.
Excerpt: A secondary antibody was used to detect bound polypeptide complex. A secondary antibody was used to detect bound polypeptide complex.
Test [3] concerns the target T1, Human TROP2-Biotin. Kind of test: ELISA; 1 nM Trop2-biotin immobilized (captured on neutravidin-coated plate), Ab-3 titrated, bound complex detected with a secondary antibody, OD 450 nm. For orientation: ELISA stands for enzyme-linked immunosorbent assay.
Excerpt: A secondary antibody was used to detect bound polypeptide complex.
The target in test [4] is T1, Human TROP2-Biotin. Kind of test: BLI (Octet): 10 nM TROP2-biotin loaded on sensor, Ab-3 at 6.25-50 nM, pH 7.4. In general terms: Biolayer interferometry detects binding as a change in optical thickness at a sensor tip.

B1: Ab-2 (bispecific antibody)
light: not shown
heavy: QVQLQQSGSELKKPGASVKVSCKASGYTFTNYGMNWVKQAPGQGLKWMGWINTYTGEPTYTDDFKGRFAFSLDTSVSTAYLQISSLKADDTAVYFCARGGFGSSYWYFDVWGQGSLVTVSSASTKGPSVFPLAPSSKSTSGGTAALGCLVKDYFPEPVTVSWNSGALTSGVHTFPAVLQSSGLYSLSSVVTVPSSSLGTQTYICNVNHKPSNTKVDKKVEPKSC
notes: Anti-CD3 scFv fused to the N-terminus of the anti-TROP2 Fab light chain
Turning to B1, in test [1], the dissociation constant Kd worked out at 0.687 nM. This molecule registered an EC50 in test [2] of 0.09 nM.

B2: TROP2 polypeptide complex Ab-3 (bispecific antibody)
light: DIQLTQSPSSLSASVGDRVSITCKASQDVSIAVAWYQQKPGKAPKLLIYSASYRYTGVPDRFSGSGSGTDFTLTISSLQPEDFAVYYCQQHYITPLTFGAGTKVEIKRTVAAPSVFIFPPSDEQLKSGTASVVCLLNNFYPREAKVQWKVDNALQSGNSQESVTEQDSKDSTYSLSSTLTLSKADYEKHKVYACEVTHQGLSSPVTKSFNRGEC
heavy: QTVVTQEPSLTVSPGGTVTLTCRSSTGAVTTSNYANWVQQKPGQAPRGLIGGTNKRAPGTPARFSGSLLGGKAALTLSGVQPEDEAEYYCALWYSNLWVFGGGTKLTVLGGGGSGGGGSGGGGSEVQLVESGGGLVQPGGSLKLSCAASGFTFNTYAMNWVRQAPGKGLEWVARIRSKYNNYATYYADSVKDRFTISRDDSKNTAYLQMNNLKTEDTAVYYCVRHGNFGNSYVSWFAYWGQGTLVTVSSGGGGSQVQLQQSGSELKKPGASVKVSCKASGYTFTNYGMNWVKQAPGQGLKWMGWINTYTGEPTYTDDFKGRFAFSLDTSVSTAYLQISSLKADDTAVYFCARGGFGSSYWYFDVWGQGSLVTVSSASTKGPSVFPLAPSSKSTSGGTAALGCLVKDYFPEPVTVSWNSGALTSGVHTFPAVLQSSGLYSLSSVVTVPSSSLGTQTYICNVNHKPSNTKVDKKVEPKSC
notes: Anti-CD3 scFv fused to the N-terminus of the anti-TROP2 Fab heavy chain
Consider B2, for which the concentration for a half-maximal effect (EC50) in test [3] stood at 0.17 nM. Moreover, in test [4], the dissociation constant Kd is 1.12 nM, the off-rate (koff) amounted to 0.000223 s⁻¹ and the kon was 199000 M⁻¹ s⁻¹.

B3: TROP2 TCE polypeptide complex Ab-1 (bispecific antibody)
light: DIQLTQSPSSLSASVGDRVSITCKASQDVSIAVAWYQQKPGKAPKLLIYSASYRYTGVPDRFSGSGSGTDFTLTISSLQPEDFAVYYCQQHYITPLTFGAGTKVEIKRTVAAPSVFIFPPSDEQLKSGTASVVCLLNNFYPREAKVQWKVDNALQSGNSQESVTEQDSKDSTYSLSSTLTLSKADYEKHKVYACEVTHQGLSSPVTKSFNRGEC
heavy: not shown
notes: as for B2
As to B3, in test [1], binding was put at a Kd of 0.466 nM. In test [2], this molecule had a concentration for a half-maximal effect (EC50) of 0.08 nM.

One may read the Kd as the free concentration of one partner at which half of the binding sites on the other are occupied at equilibrium, for simple one-to-one binding. A lower Kd goes with a tighter complex. Broadly, the EC50 is the concentration needed to bring the measured effect to its halfway point. Usually koff stands for the first-order rate constant of dissociation. Lower therefore signals a long-lived complex. Broadly, the kon is a measure of how fast the partners come together.
